The values that follow come from US20140072563A1 (Regeneron, published 2014).

To fix the notation:
B1: H2M1821N (antibody, V domains shown)
VH: EVQLVESGGGLVQPGRSLRLSCAASGFTFDDYAMHWVRQAPGKGLEWVSSISWNSGSIGYADSVKGRFTISRDNAKNSLYLQMNSLKPEDTALYYCTKDTDYGDYLDAFDIWGQGTMVAVAS
VL: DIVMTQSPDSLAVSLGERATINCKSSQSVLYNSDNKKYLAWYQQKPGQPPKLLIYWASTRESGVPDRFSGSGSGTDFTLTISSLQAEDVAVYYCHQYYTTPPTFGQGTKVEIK
notes: Hybridoma chimeric antibody: human variable domains, mouse IgG2 Fc (H2M prefix)
B2: H2M1938N (antibody, V domains shown)
VH: EVQLVESGGGVVRPGGSLRLSCAASGFTFDDYGMSWVRQVPGKGLEWVSGLNWNGGITGYTDSVKGRFTISRDNAKNSLYLQMNSLRAEDTAFYHCARDSGDQDAFDIWGQGTMVTVSS
VL: QIVMTQSPATLSVSPGERATLSCRASQSITPYLAWYQQKPGQTPRLLIYGVSTRATGIPARFSGSGSGTEFTLTISSLQSEDFAVYYCQQYDNWYTFGQGTKLEIK
notes: as for B1
B3: H1M1940N (antibody, V domains shown)
VH: QVQVVESGGGVVQPGRSLRLSCAASGFTFSDYGMHWVRQAPGKGLEWVAIISYDGSNKYYADSVKGRFTVSRDNSKNTLYLQLDSLRPEDAAVFYCAREGAFNLDYYAMDVWGQGTTVTVSS
VL: AIQMTQSPSSLSASVGDRVTITCRASQDIRNDLGWYQQKPGKAPNLLIYAASSLQSGVPSRFSGSGSGTDFTLTISSLQPEDFATYYCLQDSNYPLTFGGGTKVEIK
notes: Hybridoma chimeric antibody: human variable domains, mouse constant domains (H1M prefix, mouse Fc)
B4: H2M1829N (antibody, V domains shown)
VH: EVQLVESGGGVVRPGGSLRLSCVASGFTFDDYGMSWVRQAPGKGLECVSGINWNGGSTDYADSVKGRFTISRDNAKNSLYLQMNSLRAEDTALYHCARDGGDWDYFDLWGRGTLVTVSS
VL: EILMTQSPATLSVSPGERATLSCRASQSVSSNLAWYQQKPGQAPRLLIYGASTRATGIPARFSGSGSGTEFTLTISSLQSEDFAIYYCQEYNDWPLTFGGGTKVEIK
notes: as for B1
B5: H2M1824N (antibody, V domains shown)
VH: B4 VH with V23A, L93S, H95Y
VL: B4 VL with L3V, I85V, Y87F
notes: as for B1
B6: H2M1827N (antibody, V domains shown)
VH: B4 VH with V23A, N52S, S57N
VL: B4 VL
notes: as for B1
B7: H1M1828N (antibody, V domains shown)
VH: EVQLVESGGGLVQPGRSLRLSCAASGFTFDDYAMYWVRQAPGKGLEWVSGISWNSGSIGYADSVKGRFTISRDNAKNSLYLQMDSLRAEDTALYYCARDMMEVDLYGMDVWGQGTTVTVSS
VL: DIQMTQSPSSVSASVGDRVTITCRASQDISSWLAWYQQKPGTAPKFLIYETSSLQSGVPSRFSGSGSGTDFILTISSLQPEDFATYYCQQTDSFPHTFGQGTKLEIR
notes: as for B3
B8: H2M1937N (antibody, V domains shown)
VH: QVQLQQWDAGLLKPSETLSLTCAVYGGSFSSYYWSWIRQPPGKGLEWIGEINHRGSTNYNPSLKSRVTISVDTSKNQFSLKLRSVTAADTAVYYCARGGVAARPDWHFFDYWGQGTLVTVSS
VL: DIQMTQSPSSLSASVGDRVTITCRASQVIRNDLGWFQQRPGKAPKRLIYAASSLQSEVPSRFSGSGSGTEFTLTITSLQPEDFATYYCLQHNSYPLTFGQGTRLEIK
notes: as for B1
B9: H1M1819N (antibody, V domains shown)
VH: EVQLVESGGGVVRPGGSLRLSCAASGFTFDDYAMHWVRQAPGKGLEWVAGISWNSGSIDYADSVKGRFTISRDNAKNSLYLQMNSLRAGDTALYYCAKDILDLDYYGLDVWGQGTTVTVSS
VL: DIQMTQSPSSLSASVGDRVTITCRASQDISSYLAWYQQKPGKVPNLLIYDASSLQSGVPSRFSGSGSGTDFTLTLSSLQPEDFASYYCQNYNSAPYTFGQGTKLEIK
notes: as for B3
B10: H2M1936N (antibody, V domains shown)
VH: EMQLVESGGGLVQPDRSLRLSCAASGFNFDNYAIHWVRQAPGKGLEWVSGISWNSGNIGYADSVKGRFTISRDNAKNSLFLLMNSLRPDDSALYYCTRGYNWNALSPMDVWGQGTTVTVSS
VL: B9 VL with I21V, D28G, S31N, N45K, D50A, S53T, L75I, F83V, Y96M, L104V
notes: as for B1
B11: H2M1930N (antibody, V domains shown)
VH: EVQLVESGGGLVKPGGSLRLSCVASGFTFSSYNMNWVRQAPGKGLEWVSFISGSSNYIHYADSVKGRFTISRDNAKNALYLQMNSLRAEDTAVYYCARDDGDYDWFDPWGQGTLVTVSS
VL: EIVLTQSPGTLSLSPGERATLSCRASQSVSSSYLAWYQQKPGQAPRLLIYGTSSRATGIPDRFSGSGSGTDFTLTISRLEPEDFAVYYCQQYDNSYTFGQGTKLEIK
notes: as for B1
B12: H2M1934N (antibody, V domains shown)
VH: EVQLVQSGGGLVKPGGSLRLSCAASGFTFSNFNMNWVRQAPGKGLEWVSFISSLSTYTYYADSVKGRFTISRDNAKNSLYLQMNSLRAEDTAVYYCARDDGDHDWFDPWGQGTLVTVSS
VL: B11 VL with G9D, S32N, G51S, T52A, S54N, N94S
notes: as for B1

Substitutions are numbered along the chain they refer to. Numbers in names are those of the source.

Sequence of hErbB3.mmh (soluble monomeric human ErbB3 extracellular domain with C-terminal myc-myc-hexahistidine tag) (P21860 other isoform, or with tags, fused parts or gaps): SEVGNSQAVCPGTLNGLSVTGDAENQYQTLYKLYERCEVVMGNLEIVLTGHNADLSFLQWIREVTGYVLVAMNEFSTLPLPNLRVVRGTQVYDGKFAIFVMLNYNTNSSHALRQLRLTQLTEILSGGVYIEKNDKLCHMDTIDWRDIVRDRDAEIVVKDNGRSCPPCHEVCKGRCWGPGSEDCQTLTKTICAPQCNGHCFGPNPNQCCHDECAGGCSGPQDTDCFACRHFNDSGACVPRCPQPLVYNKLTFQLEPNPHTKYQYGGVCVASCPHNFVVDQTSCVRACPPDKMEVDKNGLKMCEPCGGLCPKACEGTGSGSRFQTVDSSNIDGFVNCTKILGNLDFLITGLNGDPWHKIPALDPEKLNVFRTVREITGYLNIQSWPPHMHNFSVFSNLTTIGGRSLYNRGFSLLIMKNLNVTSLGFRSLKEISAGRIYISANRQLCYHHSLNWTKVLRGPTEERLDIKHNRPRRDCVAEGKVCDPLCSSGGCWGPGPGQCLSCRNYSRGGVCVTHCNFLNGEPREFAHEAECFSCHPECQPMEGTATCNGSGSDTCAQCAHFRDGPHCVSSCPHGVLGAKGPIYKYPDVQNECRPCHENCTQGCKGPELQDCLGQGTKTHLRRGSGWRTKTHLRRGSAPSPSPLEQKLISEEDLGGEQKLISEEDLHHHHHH

The target of one test is T1, hErbB3.hFc (soluble dimeric human ErbB3 extracellular domain fused to human Fc) (human).
T1 construct: called dimeric
T1 sequence (chain, as listed by the source limits assumed): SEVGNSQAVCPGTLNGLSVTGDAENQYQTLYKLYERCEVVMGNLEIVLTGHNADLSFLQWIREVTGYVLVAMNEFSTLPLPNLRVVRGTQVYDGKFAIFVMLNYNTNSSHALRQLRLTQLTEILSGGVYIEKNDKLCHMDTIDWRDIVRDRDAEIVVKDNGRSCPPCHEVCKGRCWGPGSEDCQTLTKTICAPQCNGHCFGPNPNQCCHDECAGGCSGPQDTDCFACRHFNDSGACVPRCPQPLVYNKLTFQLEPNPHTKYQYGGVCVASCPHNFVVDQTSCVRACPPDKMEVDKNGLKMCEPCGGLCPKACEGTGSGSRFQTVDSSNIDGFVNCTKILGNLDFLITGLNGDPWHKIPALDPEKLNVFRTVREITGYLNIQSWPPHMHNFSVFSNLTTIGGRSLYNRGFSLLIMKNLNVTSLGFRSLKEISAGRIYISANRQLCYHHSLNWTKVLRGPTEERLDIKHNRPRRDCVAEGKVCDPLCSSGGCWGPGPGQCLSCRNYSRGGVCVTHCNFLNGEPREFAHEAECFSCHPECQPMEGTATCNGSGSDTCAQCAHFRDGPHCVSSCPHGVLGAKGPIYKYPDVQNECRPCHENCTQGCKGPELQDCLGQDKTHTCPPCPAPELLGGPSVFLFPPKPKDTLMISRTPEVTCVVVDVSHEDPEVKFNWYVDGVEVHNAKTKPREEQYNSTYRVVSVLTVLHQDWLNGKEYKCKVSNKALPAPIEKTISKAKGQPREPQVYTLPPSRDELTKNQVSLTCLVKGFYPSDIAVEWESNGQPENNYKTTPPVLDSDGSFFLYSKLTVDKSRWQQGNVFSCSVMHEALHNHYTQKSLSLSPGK
The experiment in a line: blocking ELISA: antibody + 50 pM ErbB3-hFc on neuregulin1b-coated plate. An excerpt:
To further characterize anti-hErbB3 mAbs of the present invention, their ability to block ligand binding was examined via ELISA. […] Plates were washed and non-sequestered (plate bound) ErbB3 was detected with an anti-Fc poly conjugated with horseradish peroxidase (HRP). Plates were developed with TMB (3,3′,5,5′-tetramethylbenzidine) and neutralized with sulfuric acid before reading absorbance at 450 nm on a Victor X5 plate reader. Data analysis used a sigmoidal dose-response model within Prism™ software. […] Maximal blocking for each antibody was calculated by taking the difference in absorbance from zero to 50 nM antibody on the inhibition curve, divided by the difference in absorbance from 50 pM to zero ErbB3 on the dose curve.
In the case of B1, the half-maximal inhibitory concentration (IC50) (as a rule, the concentration that inhibits the measured activity by half) came out at 0.0285 nM and the “Maximal Blocking (%)” value stood at 96%.

B2: the 50% inhibitory concentration (IC50) amounted to 0.0249 nM and the “Maximal Blocking (%)” value is 85%.

On to B3, for which the IC50 is 0.53 nM and the “Maximal Blocking (%)” value worked out at 80%.

For the molecule B4, the half-maximal inhibitory concentration (IC50) was 0.0238 nM and the “Maximal Blocking (%)” value was 98%.

Consider B5, for which the concentration for half-maximal inhibition (IC50) is 0.0251 nM and the “Maximal Blocking (%)” value was 99%.

Take B6: the IC50 amounted to 0.0229 nM and the “Maximal Blocking (%)” value worked out at 98%.

B7: the half-inhibitory concentration (IC50) is 0.03 nM and the “Maximal Blocking (%)” value turned out to be 95%.

As to B8, the IC50 amounted to 0.044 nM and the “Maximal Blocking (%)” value was 95%.

On to B9, for which the concentration for half-maximal inhibition (IC50) turned out to be 0.0315 nM and the “Maximal Blocking (%)” value was 92%.

Take B10: the concentration for half-maximal inhibition (IC50) came out at 0.527 nM and the “Maximal Blocking (%)” value is 91%.

Turning to B11, the IC50 was found to be 0.0222 nM and the “Maximal Blocking (%)” value amounted to 87%.

Take B12: the IC50 stood at 0.0261 nM and the “Maximal Blocking (%)” value was 80%.

The target in another test is hErbB3.mmh (soluble monomeric human ErbB3 extracellular domain with C-terminal myc-myc-hexahistidine tag) (human, UniProt P21860 20-642). The test is described as follows: SPR (Biacore), 25 C, mAb capture format. Here is the method:
(§1) (Tables 2-4). Measurements were conducted on a Biacore 2000 or T100 instrument. […] Kinetic association (kₐ) and dissociation (kd) rate constants were determined by processing and fitting the data to a 1:1 binding model using Scrubber 2.0 curve fitting software.
(In general: In SPR one partner is held on a chip, and binding of the other changes the refractive index at the surface.)
Regarding B1, the Kd (in general, the free concentration of one partner at which half of the binding sites on the other are occupied at equilibrium, for simple one-to-one binding) is 0.867 nM; the T½ came to 0.967 h; the koff (commonly a measure of how fast the partners let go of each other) stood at 0.000199 s⁻¹; the kon (commonly the rate constant with which the complex forms) came out at 229000 M⁻¹ s⁻¹.

In turn, B2 gave a dissociation constant Kd of 0.599 nM, a T½ of 1.33 h, a koff of 0.000144 s⁻¹ and an on-rate (kon) of 241000 M⁻¹ s⁻¹.

Consider B3, for which binding was put at a Kd of 0.477 nM, the T½ came to 1.4 h, the koff amounted to 0.000138 s⁻¹ and the on-rate (kon) turned out to be 289000 M⁻¹ s⁻¹.

B4 had a Kd of 0.281 nM, a T½ of 2.98 h, a koff of 6.46e-05 s⁻¹ and a kon of 230000 M⁻¹ s⁻¹.

B5: the dissociation constant Kd was found to be 0.205 nM, the T½ came to 4.23 h, the koff was found to be 4.56e-05 s⁻¹ and the kon worked out at 223000 M⁻¹ s⁻¹.

As to B6, the equilibrium dissociation constant (Kd) worked out at 0.409 nM, the T½ came to 2.15 h, the koff came to 8.96e-05 s⁻¹ and the kon is 219000 M⁻¹ s⁻¹.

For the molecule B7, binding was characterised by a dissociation constant (Kd) of 0.515 nM, the T½ was 0.733 h, the dissociation rate constant (koff) was determined as 0.000265 s⁻¹ and the association rate constant (kon) is 513000 M⁻¹ s⁻¹.

B8 registered a Kd of 0.682 nM, a T½ of 3.42 h, a koff of 5.63e-05 s⁻¹ and a kon of 82600 M⁻¹ s⁻¹.

In the case of B9, binding was characterised by a dissociation constant (Kd) of 1.01 nM, the T½ worked out at 0.6 h, the koff was found to be 0.000322 s⁻¹ and the kon is 319000 M⁻¹ s⁻¹.

With B10, the equilibrium dissociation constant (Kd) was 6.59 nM, the T½ was determined as 0.683 h, the koff is 0.000285 s⁻¹ and the kon is 43200 M⁻¹ s⁻¹.

In the case of B11, the dissociation constant (Kd) is 0.559 nM, the T½ came to 1.77 h, the koff was found to be 0.000109 s⁻¹ and the on-rate constant (kon) was 196000 M⁻¹ s⁻¹.

With B12, the affinity, expressed as Kd, was 0.438 nM; the T½ turned out to be 2.62 h; the koff was 7.35e-05 s⁻¹; the association rate constant (kon) is 168000 M⁻¹ s⁻¹.

Another test addresses T1, hErbB3.hFc (soluble dimeric human ErbB3 …). The experiment in a line: SPR (Biacore), 25 C, mAb capture format. Here is the method:
as §1
The molecule B1 yielded an equilibrium dissociation constant (Kd) of 0.0413 nM, a T½ of 10.1 h, a koff of 1.9e-05 s⁻¹ and a kon of 461000 M⁻¹ s⁻¹.

In turn, B2 returned an equilibrium dissociation constant (Kd) of 0.0301 nM, a T½ of 14.2 h, a dissociation rate constant (koff) of 1.36e-05 s⁻¹ and a kon of 451000 M⁻¹ s⁻¹.

B3 registered a dissociation constant Kd of 0.0529 nM, a T½ of 7.92 h, an off-rate constant (koff) of 2.43e-05 s⁻¹ and a kon of 460000 M⁻¹ s⁻¹.

Molecule B4 came in with a Kd of 0.0198 nM, a T½ of 22.4 h, an off-rate (koff) of 8.61e-06 s⁻¹ and an on-rate (kon) of 436000 M⁻¹ s⁻¹.

As for B5, the Kd was found to be 0.00334 nM, the T½ was 134 h, the koff was determined as 1.44e-06 s⁻¹ and the on-rate (kon) was found to be 431000 M⁻¹ s⁻¹.

As to B6, binding was characterised by a dissociation constant (Kd) of 0.0173 nM, the T½ stood at 25.4 h, the koff came out at 7.58e-06 s⁻¹ and the kon turned out to be 439000 M⁻¹ s⁻¹.

As for B7, the dissociation constant (Kd) came out at 0.0279 nM, the T½ is 4.43 h, the koff is 4.34e-05 s⁻¹ and the kon was 1.56e+06 M⁻¹ s⁻¹.

Molecule B8 yielded a Kd of 0.116 nM, a T½ of 15.1 h, a koff of 1.27e-05 s⁻¹ and a kon of 110000 M⁻¹ s⁻¹.

B9: the equilibrium dissociation constant (Kd) turned out to be 0.122 nM, the T½ was found to be 3.27 h, the off-rate constant (koff) was 5.88e-05 s⁻¹ and the kon worked out at 480000 M⁻¹ s⁻¹.

Consider B10, for which the Kd worked out at 1.09 nM, the T½ is 2.77 h, the koff was determined as 6.97e-05 s⁻¹ and the kon came out at 64100 M⁻¹ s⁻¹.

On to B11, for which the Kd is 0.0205 nM, the T½ was determined as 23.3 h, the koff was determined as 8.27e-06 s⁻¹ and the on-rate constant (kon) stood at 404000 M⁻¹ s⁻¹.

In turn, B12 had an equilibrium dissociation constant (Kd) of 0.0222 nM, a T½ of 24.2 h, a koff of 7.97e-06 s⁻¹ and an on-rate (kon) of 359000 M⁻¹ s⁻¹.
